Biological target: ANAPC2CW fragment (mouse ANAPC2 cullin-Winged-helix subdomain; residues 512–837) (mouse, UniProt Q8BZQ7 512-837)
Assay: NMR titration

ANAPC2CW fragment (mouse ANAPC2 cullin-Winged-helix subdomain; residues 512–837), sequence (Q8BZQ7 512-837): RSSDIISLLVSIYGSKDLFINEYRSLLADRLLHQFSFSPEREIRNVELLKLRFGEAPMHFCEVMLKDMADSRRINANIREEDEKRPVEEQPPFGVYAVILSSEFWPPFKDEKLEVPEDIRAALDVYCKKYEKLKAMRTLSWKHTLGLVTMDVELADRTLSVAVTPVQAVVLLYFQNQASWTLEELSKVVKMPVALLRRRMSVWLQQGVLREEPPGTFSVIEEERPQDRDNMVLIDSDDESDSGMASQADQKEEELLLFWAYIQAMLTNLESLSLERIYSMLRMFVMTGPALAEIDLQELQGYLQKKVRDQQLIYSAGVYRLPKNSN

- binding result: binds
B1: Emi2 ZBR–RL fragment (mouse Emi2; residues 547–641), 13C- and 15N-labeled (domain or fragment, UniProt Q8CDI2 546-640, looked up)
chain: LTHLRSKQEQYVKVARTLFTDEALKPCPRCQSPAKYQPHKKRGLCSRLACGFDFCVLCLCAYHGSEDCRRGSAKARGSKDVLPGSAQSKRNLKRL
modifications: [15N, 13C]-labeled
